Data reported in patent publication US6623738 (University of California, dated 2003).
Changes are numbered by the printed parent chain. Where “and” joins values, the source holds several entries; their conditions need not be identical. Identical values can stand only once.

B1: AP fusion protein comprising only the C domain of SemaIII (AP-C) (ligand)
chain: IIPVEEENPDFWNREAAEALGAAKKLQPAQTAAKNLIIFLGDGMGVSTVTAARILKGQKKDKLGPEIPLAMDRFPYVALSKTYNVDKHVPDSGATATAYLCGVKGNFQTIGLSAAARFNQCNTTRGNEVISVMNRAKKAGKSVGVVTTTRVQHASPAGTYAHTVNRNWYSDADVPASARQEGCQDIATQLISNMDIDVILGGGRKYMFRMGTPDPEYPDDYSQGGTRLDGKNLVQEWLAKRQGARYVWNRTELMQASLDPSVTHLMGLFEPGDMKYEIHRDSTLDPSLMEMTEAALRLLSRNPRGFFLFVEGGRIDHGHHESRAYRALTETIMFDDAIERAGQLTSEEDTLSLVTADHSHVFSFGGYPLRGSSIFGLAPGKARDRKAYTVLLYGNGPGYVLKDGARPDVTESESGSPEYRQQSAVPLDEETHAGEDVAVFARGPQAHLVHGVQEQTFIAHVMAFAACLEPYTACDLAPPAGTTDAAHPGGFIQTLLKVTLEVIDTEHLEELLHKDDDGDGSKTKEMSNSMTPSQKVWYRDFMQLINHPNLNTMDEFCEQVWKRDRKQRRQRPGHTPGNSNKWKHLQENKK
B2: rat semaphorin receptor 1 (rSR1), full length, expressed on cells (receptor)
chain: FRSDKCGGTIKIENPGYLTSPGYPHSYHPSEKCEWLIQAPEPYQRIMINFNPHFDLEDRDCKYDYVEVIDGENEGGRLWGKFCGKIAPSPVVSSGPFLFIKFVSDYETHGAGFSIRYEIFKRGPECSQNYTAPTGVIKSPGFPEKYPNSLECTYIIFAPKMSEIILEFESFDLEQDSNPPGGMFCRYDRLEIWDGFPEVGPHIGRYCGQKTPGRIRSSSGILSMVFYTDSAIAKEGFSANYSVLQSSISEDFKCMEALGMESGEIHSDQITASSQYGTNWSVERSRLNYPENGWTPGEDSYREWIQVDLGLLRFVTAVGTQGAISKETKKKYYVKTYRVDISSNGEDWITLKEGNKAIIFQGNTNPTDVVFGVFPKPLITRFVRIKPASWETGISMRFEVYGCKITDYPCSGMLGMVSGLISDSQITASNQGDRNWMPENIRLVTSRTGWALPPSPHPYINEWLQVDLGDEKIVRGVIIQGGKHRENKVFMRKFKIAYSNNGSDWKMIMDDSKRKAKSFEGNNNYDTPELRAFTPLSTRFIRIYPERATHSGLGLRMELLGCEVEVPTAGPTTPNGNPVDECDDDQANCHSGTGDDFQLTGGTTVLATEKPTIIDSTIQSEFPTYGFNCEFGWGSHKTFCHWEHDSHAQLRWRVLTSKTGPIQDHTGDGNFIYSQADENQKGKVARLVSPVVYSQSSAHCMTFWYHMSGSHVGTLRVKLHYQKPEEYDQLVWMVVGHQGDHWKEGRVLLHKSLKLYQVIFEGEIGKGNLGGIAVDDISINNHIPQEDCAKPTDLDKKNTEIKIDETGSTPGYEEGKGDKNISRKPGNVLKTLDPILITIIAMSALGVLLGAVCGVVLYCACWHNGMSERNLSALENYNFELVDGVKLKKDKLNPHSNYSEA
notes: also called rat SR1; p28
B3: neuropilin-1 transiently expressed in COS-7 cells (receptor)
chain: B2 chain with M183V, H895Q
notes: also called npn-1; SR1
B4: AP fusion with the ectodomain of Sema VIa (ligand, UniProt O35464 19-649, looked up)
chain: GFPEDSEPISISHGNYTKQYPVFVGHKPGRNTTQRHRLDIQMIMIMNRTLYVAARDHIYTVDIDTSHTEEIYCSKKLTWKSRQADVDTCRMKGKHKDECHNFIKVLLKKNDDTLFVCGTNAFNPSCRNYRVDTLETFGDEFSGMARCPYDAKHANIALFADGKLYSATVTDFLAIDAVIYRSLGDSPTLRTVKHDSKWLKEPYFVQAVDYGDYIYFFFREIAVEYNTMGKVVFPRVAQVCKNDMGGSQRVLEKQWTSFLKARLNCSVPGDSHFYFNILQAVTDVIRINGRDVVLATFSTPYNSIPGSAVCAYDMLDIANVFTGRFKEQKSPDSTWTPVPDERVPKPRPGCCAGSSSLEKYATSNEFPDDTLNFIKTHPLMDEAVPSIINRPWFLRTMVRYRLTKIAVDNAAGPYQNHTVVFLGSEKGIILKFLARIGSSGFLNGSLFLEEMNVYNPEKCSYDGVEDKRIMGMQLDRASGSLYVAFSTCVIKVPLGRCERHGKCKKTCIASRDPYCGWVRESGSCAHLSPLSRLTFEQDIERGNTDGLGDCHNSFVALNGHASSLYPSTTTSDSASRDGYESRGGMLDWNDLLEAPGSTDPLGAVSSHNHQDKKGVIRESYLKSNDQLVPVT
notes: extracellular domain; also called Sema VIa ectodomain; not shown: alkaline phosphatase (AP) reporter

Assays:
[1] = target: B2; assay: equilibrium binding of AP fusion to 293-EBNA cells stably expressing rat SR1, Hill fit
[2] = target: AP fusion protein comprising just the semaphorin domain of SemaIII (AP-S); assay: as above
[3] = target: T1, SemaIII-AP fusion protein (full-length Sema III fused at its carboxy terminus to alkaline phosphatase); assay: as above
[4] = target: T1, SemaIII-AP fusion protein (full-length …); assay: equilibrium binding of AP fusion to neuropilin-1-expressing cells, Hill fit
[5] = target: T2, mouse neuropilin-2(a22), myc-tagged, expressed in COS-7 cells (mouse, UniProt O35375 21-931); assay: AP fusion binding to transfected COS cells
T2 construct: also called SR2(a)22
T2 sequence: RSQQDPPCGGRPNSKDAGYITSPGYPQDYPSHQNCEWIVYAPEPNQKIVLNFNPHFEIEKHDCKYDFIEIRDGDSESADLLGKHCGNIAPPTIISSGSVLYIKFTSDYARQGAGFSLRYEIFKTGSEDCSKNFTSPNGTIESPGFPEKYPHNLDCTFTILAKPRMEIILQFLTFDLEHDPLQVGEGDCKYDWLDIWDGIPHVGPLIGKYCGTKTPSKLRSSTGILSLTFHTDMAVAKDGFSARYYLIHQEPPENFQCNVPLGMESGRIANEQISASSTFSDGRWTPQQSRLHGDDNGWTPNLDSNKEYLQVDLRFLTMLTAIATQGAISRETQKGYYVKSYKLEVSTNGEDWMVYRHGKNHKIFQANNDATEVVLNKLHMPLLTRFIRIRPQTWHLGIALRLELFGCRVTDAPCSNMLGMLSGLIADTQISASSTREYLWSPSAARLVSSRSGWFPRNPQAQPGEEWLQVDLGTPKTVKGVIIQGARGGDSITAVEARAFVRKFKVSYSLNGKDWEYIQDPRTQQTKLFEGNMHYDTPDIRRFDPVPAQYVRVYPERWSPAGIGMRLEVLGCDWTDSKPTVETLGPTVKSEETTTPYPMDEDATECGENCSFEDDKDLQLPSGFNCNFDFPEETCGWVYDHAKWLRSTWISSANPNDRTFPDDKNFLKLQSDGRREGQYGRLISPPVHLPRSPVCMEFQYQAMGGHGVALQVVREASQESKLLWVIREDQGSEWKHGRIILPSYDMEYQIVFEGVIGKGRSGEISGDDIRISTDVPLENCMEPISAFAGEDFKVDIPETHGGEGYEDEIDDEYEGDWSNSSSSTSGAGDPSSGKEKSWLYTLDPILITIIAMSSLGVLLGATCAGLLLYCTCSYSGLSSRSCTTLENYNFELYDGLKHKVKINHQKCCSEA

[6] = target: T3, mouse neuropilin-2(a5), myc-tagged, expressed in COS-7 cells (mouse, UniProt O35375 21-931); assay: AP fusion binding to transfected COS cells
T3 construct: also called a5 isoform of neuropilin-2; SR2(a)5
T3 sequence: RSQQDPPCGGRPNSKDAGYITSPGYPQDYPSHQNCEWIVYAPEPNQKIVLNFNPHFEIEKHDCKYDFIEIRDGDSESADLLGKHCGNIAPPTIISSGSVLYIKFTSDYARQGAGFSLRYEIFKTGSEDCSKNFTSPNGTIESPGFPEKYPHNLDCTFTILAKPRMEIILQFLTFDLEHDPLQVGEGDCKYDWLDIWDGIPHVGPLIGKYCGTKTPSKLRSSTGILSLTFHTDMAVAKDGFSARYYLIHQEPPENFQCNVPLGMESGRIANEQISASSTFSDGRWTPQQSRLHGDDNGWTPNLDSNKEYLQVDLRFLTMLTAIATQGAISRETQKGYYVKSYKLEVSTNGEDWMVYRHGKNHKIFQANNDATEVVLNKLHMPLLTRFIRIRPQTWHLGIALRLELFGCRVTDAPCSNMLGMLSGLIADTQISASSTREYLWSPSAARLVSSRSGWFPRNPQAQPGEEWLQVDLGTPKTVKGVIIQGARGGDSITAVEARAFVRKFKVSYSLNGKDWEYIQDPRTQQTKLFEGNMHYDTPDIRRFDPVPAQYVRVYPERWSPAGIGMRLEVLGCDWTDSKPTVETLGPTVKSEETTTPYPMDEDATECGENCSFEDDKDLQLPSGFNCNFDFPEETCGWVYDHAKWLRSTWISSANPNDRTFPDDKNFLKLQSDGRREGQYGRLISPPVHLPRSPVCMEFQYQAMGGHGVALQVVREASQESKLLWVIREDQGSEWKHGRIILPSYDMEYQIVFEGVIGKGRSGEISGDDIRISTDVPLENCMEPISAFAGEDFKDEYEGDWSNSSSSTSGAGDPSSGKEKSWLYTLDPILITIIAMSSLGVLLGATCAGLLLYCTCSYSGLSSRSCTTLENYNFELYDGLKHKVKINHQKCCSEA

[7] = target: T4, mouse neuropilin-2(a0), myc-tagged, expressed in COS-7 cells (mouse, UniProt O35375 21-931); assay: AP fusion binding to transfected COS cells
T4 construct: also called SR2(a)0; m-npn-2
T4 sequence: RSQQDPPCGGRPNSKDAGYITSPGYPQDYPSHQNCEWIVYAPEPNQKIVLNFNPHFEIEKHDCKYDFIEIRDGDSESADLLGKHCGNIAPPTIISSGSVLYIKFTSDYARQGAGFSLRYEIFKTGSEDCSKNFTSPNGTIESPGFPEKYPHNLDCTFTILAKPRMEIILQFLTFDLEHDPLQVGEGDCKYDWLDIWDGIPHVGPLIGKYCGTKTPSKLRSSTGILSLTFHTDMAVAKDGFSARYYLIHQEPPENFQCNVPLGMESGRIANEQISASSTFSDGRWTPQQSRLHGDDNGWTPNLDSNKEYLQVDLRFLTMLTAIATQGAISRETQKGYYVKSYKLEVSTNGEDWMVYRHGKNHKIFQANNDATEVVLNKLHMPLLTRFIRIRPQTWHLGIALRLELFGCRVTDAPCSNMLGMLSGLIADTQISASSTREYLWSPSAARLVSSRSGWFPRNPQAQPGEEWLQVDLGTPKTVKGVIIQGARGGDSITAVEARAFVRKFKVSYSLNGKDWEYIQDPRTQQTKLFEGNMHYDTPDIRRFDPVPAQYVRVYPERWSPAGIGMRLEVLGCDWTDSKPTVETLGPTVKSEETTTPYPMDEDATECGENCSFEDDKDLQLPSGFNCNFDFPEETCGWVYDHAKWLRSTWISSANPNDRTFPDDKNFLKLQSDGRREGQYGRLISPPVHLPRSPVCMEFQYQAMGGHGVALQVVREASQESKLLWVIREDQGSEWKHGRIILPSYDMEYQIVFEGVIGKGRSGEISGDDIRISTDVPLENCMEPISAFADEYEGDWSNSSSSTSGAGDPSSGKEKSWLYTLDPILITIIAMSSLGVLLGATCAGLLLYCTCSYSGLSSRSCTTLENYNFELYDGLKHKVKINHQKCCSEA

B1
Kd [1]: 0.84 nM and 0.0672 µg/mL

B2
Kd [2]: 0.219 µg/mL and 1.45 nM | Kd [3]: 0.0553 µg/mL and 0.325 nM

B3
Kd [4]: 0.325 nM

B4
binding result [5]: no binding | binding result [6]: no binding | binding result [7]: no binding
